From the nanobody polyreactivity screen of Harvey et al. (2022)

Experiment: yeast display, Sf9 membrane polyspecificity reagent, FACS + sequencing; frameworks hold sequencing errors
Method in brief: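 A nanobody's polyreactivity label depends on the gate it was sorted from. Yeast display cells were stained with 10% biotinylated, detergent-solubilized Sf9 membrane reagent for 1 hour at 4 °C, enriched on streptavidin microbeads and sorted by FACS. The low and high (top ~1%) gates were set on anti-HA fluorescence for expression and streptavidin fluorescence for reagent binding.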

Sequence | polyreactivity (PSR sort gate)
QVQLVESGGGLDQAGGSLRLSCAASGGILVIYAMGWYRQEPGKERELVAAINVSGGSTYYADSVKGRFTISRDNAKNTVYLQMNSLKPEDTAVYYCAALGPYLDYGVQYGYWGQGTQVTVSS | low polyreactivity
QVQLVESGGGLDQAGGSLRLSCAASGGTFARYAMGWYRQAPGKERELVAAISARGGSTYYADSVKGRFTISRDNAKNTVYLQMNSLKPEDTAVYYCAAKKWYDRYGFDYWGQGTQVTVSS | high polyreactivity
QVQLVESGGGLDQAGGSLRLSCAASGGTFGLYAMGWYRQAPGKERELVAAITWSDSSTYYADSVKGRFTISRDNAKNTVYFQMNSLKPEDTAVYYCNAVRSTSYGSYNYWGQGTQVTVSS | low polyreactivity
QVQLVESGGGLDQAGGSLRLSCAASGGTFYYYAMGWYRQPPGKERELVAAITKNGGSTYYADSVKGRFTNSRDNAKNTVYLQMNRLKPEDTAVYSCAKATVAYGWWRYNYWGQGTQVTVSS | high polyreactivity
QVQLVESGGGLDQAGGSLRLSCAASGITFGRNTMGWYRQAPGQERELVAAIDSGGNTYADSVKGRFTISRDNAKNTVYLQMNCLKPEDTAVYYCAVDGGEFSSYGYWGQGTQVTVSS | low polyreactivity
QVQLVESGGGLDQAGGSLRLSCAASGITFPAYAMGLYRQAPGKEREWVAAITSGSSTNYADSVKGRFTISRDNAKNTVYLHLNSLKPEDTAVYYCAAQASYWGYRSGNRYGYWGQGTQVTVSS | high polyreactivity
QVQLVESGGGLDQAGGSLRLSCAASGITFVRYAMGWYRQAPGKERELVAAISWSGGSTYYADSVKGRFTISRDNEKNTVYLQMNSLKPEDTAVYYCAAQHDVRYDYWGQGTQVTVSS | low polyreactivity
QVQLVESGGGLDQAGGSLRLSCAASGLIFRRYAMGWYRQAPGKERELVAAISRSGGSTYYADSVKGRFTISRDNAKNTVYLQMNSLKPEDTAVYYCAARTRSDNSYHGGEYWGQGTQVTVSS | high polyreactivity
QVQLVESGGGLDQAGGSLRLSCAASGRIFEYNAMGWYRQAPGKERELVAAINYNDVSTYYADSVKGRFTISRDNAKNTVFFQINSLKPEDTAVYYCNVYGDKWSAAYGEYVYWGQGTQVTVSS | low polyreactivity
QVQLVESGGGLDQAGGSLRLSCAASGRIFFAYAMGWYRQAPGKEREFVAAISDNDGSTFYADSVKGRFTISRDNAKNPVYLQMNSLKPEDTAVYYCNADLGYVYDYWGQGTQVTVSS | low polyreactivity
QVQLVESGGGLDQAGGSLRLSCAASGRIFRFYAMGWYRQATGKERELVAAISSRGGSTYYADSVKGRFTISRDNAKNTFYLQMNSLKPEDTAVYYCAKKTWRDYSYNYWGQGTQVTVSS | high polyreactivity
QVQLVESGGGLDQAGGSLRLSCAASGRIFRRYAMGWYRQAPGKERELVAAISTRGGSTYYADSVKGRFTISRDHAKNTVYLQMNSLKPEDTAVYYCNAEARSRRYRYDYWGQGTQVTVSS | high polyreactivity
QVQLVESGGGLDQAGGSLRLSCAASGRIFTYNAMGWYRPAPGKERELVAVISRRGGSTYYADSVKGRFTISRDNAKNTVYLQMNSLKPEDTAVYYCAAGGSVFYDNRYDYWGQGTQVTVSS | low polyreactivity
QVQLVESGGGLDQAGGSLRLSCAASGRIFVGYARGWYRQAPVKERELVASITGRGTSTYYADSVKGRFTISRDNAKNTVYLQMNSLKPEDTAVYYCNALYRKYRNQWYISNYGYYYWGQGTQVTVSS | low polyreactivity
QVQLVESGGGLDQAGGSLRLSCAASGRIFVIYAMGWYRQAPGKERELVAVINDDGSTNYADSVKGRFTISRDNAKNTVYLQMNSLKPEDTAVYYCAAESARYLTFEFDYWGQSTQVTVSS | low polyreactivity
QVQLVESGGGLDQAGGSLRLSCAASGRIFVPNAMGWYRQAPGKERELVAAINWGGGSTYYADSVKGRFTISRDNAKNTVYLQMNSLKPEDTAVYYCAADHPYTIGVLPNQQFDYWGQGPQVTVSS | low polyreactivity
QVQLVESGGGLDQAGGSLRLSCAASGRILRYYTMGWYRQAPGKERELVAAISRSGGGTYYADSVKGRFTISRDNAKNTVYLQMNSLKPEDTAVYYCAKQTHQKAYDYWGQGTQVTVSS | high polyreactivity
